Experimental data from the Immune Epitope Database (IEDB).

Legend:
HLA-A*02:17 = assay: IEDB peptide-MHC binding, purified MHC/competitive/radioactivity; filed as Kd, often an IC50 or EC50 that approximates it; ≥ and ≤ were set here for values at or beyond the usual limits of such assays; details: source organism: Dengue virus 3 China/80-2/1980
HLA-A*02:01 [1] = assay: as above; details: source organism: Dengue virus 3 China/80-2/1980
HLA-B*44:02 = assay: IEDB peptide-MHC binding, purified MHC/direct/fluorescence; filed as Kd, often an IC50 or EC50 that approximates it; ≥ and ≤ were set here for values at or beyond the usual limits of such assays; details: source organism: Dengue virus 1 Singapore/S275/1990
HLA-B*15:42 = assay: IEDB peptide-MHC binding, purified MHC/competitive/fluorescence; filed as Kd, often an IC50 or EC50 that approximates it; ≥ and ≤ were set here for values at or beyond the usual limits of such assays
HLA-B*45:06 = assay: as above
HLA-B*83:01 = assay: as above
HLA-B*44:03 = assay: IEDB peptide-MHC binding, purified MHC/competitive/radioactivity; filed as Kd, often an IC50 or EC50 that approximates it; ≥ and ≤ were set here for values at or beyond the usual limits of such assays; details: source organism: Dengue virus 1 Brazil/97-11/1997
HLA-A*24:02 [2] = assay: IEDB peptide-MHC binding, purified MHC/competitive/fluorescence; filed as Kd, often an IC50 or EC50 that approximates it; ≥ and ≤ were set here for values at or beyond the usual limits of such assays
HLA-A*03:01 = assay: IEDB peptide-MHC binding, purified MHC/competitive/fluorescence; ≥ and ≤ were set here for values at or beyond the usual limits of such assays
HLA-A*11:01 = assay: as above
HLA-B*15:01 [3] = assay: IEDB peptide-MHC binding, purified MHC/competitive/radioactivity; filed as Kd, often an IC50 or EC50 that approximates it; ≥ and ≤ were set here for values at or beyond the usual limits of such assays; details: source organism: Vaccinia virus WR
HLA-B*15:03 = assay: as above; details: source organism: Vaccinia virus WR
HLA-A*32:01 = assay: as above; details: source organism: Vaccinia virus WR
HLA-B*08:01 = assay: as above; details: source organism: Vaccinia virus WR
HLA-A*30:01 = assay: as above; details: source organism: Vaccinia virus WR
HLA-B*15:01 [4] = assay: IEDB peptide-MHC binding, purified MHC/competitive/fluorescence; ≥ and ≤ were set here for values at or beyond the usual limits of such assays; details: source organism: Zaire ebolavirus
HLA-A*24:02 [5] = assay: as above; details: source organism: Zaire ebolavirus
HLA-A*02:01 [6] = assay: as above; details: source organism: Zaire ebolavirus
HLA-B*07:02 = assay: IEDB peptide-MHC binding, purified MHC/competitive/fluorescence; filed as Kd, often an IC50 or EC50 that approximates it; ≥ and ≤ were set here for values at or beyond the usual limits of such assays
HLA-B*35:01 = assay: as above; details: source organism: Salmonella enterica subsp. enterica serovar Typhi
HLA-B*39:01 = assay: as above; details: source organism: Salmonella enterica subsp. enterica serovar Typhi
HLA-A*02:03 = assay: IEDB peptide-MHC binding, purified MHC/competitive/radioactivity; filed as Kd, often an IC50 or EC50 that approximates it; ≥ and ≤ were set here for values at or beyond the usual limits of such assays; details: source organism: Dengue virus 3 Singapore/8120/1995
[7] = source organism: dengue virus type 1
[8] = source organism: Vaccinia virus
[9] = source organism: Zaire ebolavirus
[10] = source organism: Mycobacterium tuberculosis C
[11] = source organism: Sudan ebolavirus

**Q.** How did the Kd (HLA-A*02:17) turn out when YILWENNIKL was run?
**A.** Its Kd is 10.1 nM.

**Q.** What about the Kd (HLA-A*02:01 [1]) of the same sequence?
**A.** Its Kd is 5.85 nM.

**Q.** SEMGANFRA was tested. Which Kd (HLA-B*44:02) did it give?
**A.** The Kd was no less than 37700 nM.

**Q.** What about the Kd (HLA-B*15:42; [7]) of the same sequence?
**A.** The Kd was no less than 5000 nM.

**Q.** And the Kd (HLA-B*45:06; [7])?
**A.** Its Kd is no less than 5000 nM.

**Q.** What about the Kd (HLA-B*83:01; [7]) of the same sequence?
**A.** The Kd was no less than 5000 nM.

**Q.** What about the Kd (HLA-B*44:03) of the same sequence?
**A.** Its Kd is 48.9 nM.

**Q.** With IYLNEVNTF as the sequence, how does the Kd (HLA-A*24:02 [2]; source organism: Vibrio splendidus 12B01) read?
**A.** Its Kd is no more than 0.1 nM.

**Q.** Which results are given for RNKLSYRNK?
**A.** IC50 (HLA-A*03:01; [8]): 45100 nM; IC50 (HLA-A*11:01; [8]): ≥ 90400 nM; Kd (HLA-B*15:01 [3]): ≥ 29500 nM; Kd (HLA-B*15:03): 16400 nM; Kd (HLA-A*32:01): ≥ 44000 nM; Kd (HLA-B*08:01): ≥ 61500 nM; Kd (HLA-A*30:01): 63.9 nM

**Q.** How did the IC50 (HLA-B*15:01 [4]) turn out when ILMNFHQKK was run?
**A.** The IC50 was 69400 nM.

**Q.** And the IC50 (HLA-A*24:02 [5])?
**A.** Its IC50 is 9840 nM.

**Q.** What about the IC50 (HLA-A*03:01; [9]) of the same sequence?
**A.** Its IC50 is 808 nM.

**Q.** And the IC50 (HLA-A*02:01 [6])?
**A.** Its IC50 is 2470 nM.

**Q.** And the IC50 (HLA-A*11:01; [9])?
**A.** Its IC50 is 163 nM.

**Q.** With YYLLFYPTI as the sequence, how does the Kd (HLA-A*24:02 [2]; source organism: Bacillus thuringiensis str. Al Hakam) read?
**A.** The Kd was no more than 0.1 nM.

**Q.** What does the source list for SKSMRDQRK?
**A.** IC50 (HLA-A*03:01; source organism: Variola virus): ≥ 246000 nM; IC50 (HLA-A*11:01; source organism: Variola virus): 21100 nM

**Q.** How did the Kd (HLA-B*07:02; source organism: Influenza A virus H3N2) turn out when RMKWMMAM was run?
**A.** The Kd was 3250 nM.

**Q.** How did the Kd (HLA-B*15:42; [10]) turn out when SARRRHLVF was run?
**A.** Its Kd is no less than 5000 nM.

**Q.** What about the Kd (HLA-B*45:06; [10]) of the same sequence?
**A.** Its Kd is no less than 5000 nM.

**Q.** What about the Kd (HLA-B*83:01; [10]) of the same sequence?
**A.** The Kd was no less than 5000 nM.

**Q.** How did the Kd (HLA-B*07:02; source organism: Influenza A virus (A/X-31(H3N2))) turn out when RARIKTRLFTI was run?
**A.** The Kd was 733 nM.

**Q.** What does the source list for AQHSTTLFK?
**A.** IC50 (HLA-A*03:01; [11]): 30000 nM; IC50 (HLA-A*11:01; [11]): 994 nM

**Q.** How did the Kd (HLA-B*07:02; source organism: Salmonella enterica subsp. enterica serovar Typhi) turn out when WPDVFSVSV was run?
**A.** The Kd was 65.7 nM.

**Q.** What about the Kd (HLA-B*35:01) of the same sequence?
**A.** The Kd was 1.3 nM.

**Q.** What about the Kd (HLA-B*39:01) of the same sequence?
**A.** Its Kd is 3.8 nM.

**Q.** With KLSSTNQLR as the sequence, how does the IC50 (HLA-A*03:01; [9]) read?
**A.** The IC50 was 6870 nM.

**Q.** And the IC50 (HLA-A*02:01 [6])?
**A.** The IC50 was no less than 196000 nM.

**Q.** And the IC50 (HLA-A*11:01; [9])?
**A.** Its IC50 is 2460 nM.

**Q.** Which Kd (HLA-A*02:17) does the source give for ALFSGVSWI here?
**A.** Its Kd is 483 nM.

**Q.** What about the Kd (HLA-A*02:01 [1]) of the same sequence?
**A.** Its Kd is 0.51 nM.

**Q.** What about the Kd (HLA-A*02:03) of the same sequence?
**A.** Its Kd is 1.58 nM.
